The values below come from the supplement of paper PMC11780869.

For this data set, the system named is Bacillus subtilis. The experiment in a line: cleaved RNA product abundance (RNA/gDNA barcode ratio) relative to median wild-type variant (ratio to wild type); higher = more accumulation of the downstream cleavage product. To be noted: experiment (reporter, strain, medium): exp 8a: truncated aprE reporter, strain BJT201 with 2% xylose (RNase J1 expressed); cleavage site: glnRA (positions -5 to +31 mutated). In outline: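 Cleaved product abundance for each construct is its RNA-to-gDNA barcode ratio, scaled to the median construct carrying the unmutated site. Cleaved RNA was isolated on a gel, reverse transcribed and barcode-sequenced, with genomic DNA barcodes sequenced alongside and UMIs collapsed. The reporters were truncated aprE or tetM mRNAs with barcoded, mutagenized RNase Y cleavage-site windows integrated into the B. subtilis chromosome, and cultures grew in LB at 37°C from OD600 0.0003 to 0.3.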
For the sequence “CGACATGTCCCGCTTCTTTCATTAATCCGTTAGCAACTGTTTTACTATATACATTTACATTTTAAGAGGAGGAAT”, the “cleaved RNA product abundance” value was determined as 0.688.

For “CGACATGTCCCGCTTCTTTCATTAATCCGTTAGCAACTGTTTTACTATATACATTTACCCTTTAAGAGGAGGAAT”, the “cleaved RNA product abundance” value worked out at 0.921.

Turning to “CGACATGTCCCGCTTCTTTCATTAATCCGTTAGCAACTGTTTTACTATATACATTTACCTTTTAAGAGGAGGAAT”, the “cleaved RNA product abundance” value came out at 0.619.

In the case of “CGACATGTCCCGCTTCTTTCATTAATCCGTTAGCAACTGTTTTACTATATACATTTACGTTTTAAGAGGAGGAAT”, the “cleaved RNA product abundance” value stood at 0.77.

On to “CGACATGTCCCGCTTCTTTCATTAATCCGTTAGCAACTGTTTTACTATATACATTTACTTTTTAAGAGGAGGAAT”, for which the “cleaved RNA product abundance” value was 0.621.

For “CGACATGTCCCGCTTCTTTCATTAATCCGTTAGCAACTGTTTTACTATATACATTTATCTTTTAAGAGGAGGAAT”, the “cleaved RNA product abundance” value came to 0.588.

With “CGACATGTCCCGCTTCTTTCATTAATCCGTTAGCAACTGTTTTACTATATACATTTTCCTTTTAAGAGGAGGAAT”, the “cleaved RNA product abundance” value was 0.458.

Turning to “CGACATGTCCCGCTTCTTTCATTAATCCGTTAGCAACTGTTTTACTATATACGTTTACCTTTTAAGAGGAGGAAT”, the “cleaved RNA product abundance” value was 0.455.

As for “CGACATGTCCCGCTTCTTTCATTAATCCGTTAGCAACTGTTTTACTATATATATTTACCTTTTAAGAGGAGGAAT”, the “cleaved RNA product abundance” value is 0.708.

Consider “CGACATGTCCCGCTTCTTTCATTAATCCGTTAGCAACTGTTTTACTATATTCATTTACCTTTTAAGAGGAGGAAT”, for which the “cleaved RNA product abundance” value was 0.189.

With “CGACATGTCCCGCTTCTTTCATTAATCCGTTAGCAACTGTTTTACTCTATACATTTACCTTTTAAGAGGAGGAAT”, the “cleaved RNA product abundance” value was determined as 0.597.

Take “CGACATGTCCCGCTTCTTTCATTAATCCGTTAGCAACTGTTTTATTATATACATTTACCTTTTAAGAGGAGGAAT”: the “cleaved RNA product abundance” value is 0.698.

As for “CGACATGTCCCGCTTCTTTCATTAATCCGTTAGCAACTGTTTTCCTAAATACATTTACCTTTTAAGAGGAGGAAT”, the “cleaved RNA product abundance” value came out at 0.23.

Turning to “CGACATGTCCCGCTTCTTTCATTAATCCGTTAGCAACTGTTTTCCTATAAACATTTACCTTTTAAGAGGAGGAAT”, the “cleaved RNA product abundance” value is 0.526.

As for “CGACATGTCCCGCTTCTTTCATTAATCCGTTAGCAACTGTTTTCCTATAGACATTTACCTTTTAAGAGGAGGAAT”, the “cleaved RNA product abundance” value was 0.36.

Regarding “CGACATGTCCCGCTTCTTTCATTAATCCGTTAGCAACTGTTTTCCTATATACATATACCTTTTAAGAGGAGGAAT”, the “cleaved RNA product abundance” value came out at 0.353.

With “CGACATGTCCCGCTTCTTTCATTAATCCGTTAGCAACTGTTTTCCTATATACATTAACCTTTTAAGAGGAGGAAT”, the “cleaved RNA product abundance” value worked out at 0.43.

Consider “CGACATGTCCCGCTTCTTTCATTAATCCGTTAGCAACTGTTTTCCTATATACATTCACCTTTTAAGAGGAGGAAT”, for which the “cleaved RNA product abundance” value came to 0.346.

For the sequence “CGACATGTCCCGCTTCTTTCATTAATCCGTTAGCAACTGTTTTCCTATATACATTTACATTTTAAGAGGAGGAAT”, the “cleaved RNA product abundance” value stood at 0.549.

As for “CGACATGTCCCGCTTCTTTCATTAATCCGTTAGCAACTGTTTTCCTATATACATTTACCTTTTAAGAGGAGGAAT”, the “cleaved RNA product abundance” value was found to be 0.539.

As for “CGACATGTCCCGCTTCTTTCATTAATCCGTTAGCAACTGTTTTCCTATATACATTTACTTTTTAAGAGGAGGAAT”, the “cleaved RNA product abundance” value worked out at 0.31.

For “CGACATGTCCCGCTTCTTTCATTAATCCGTTAGCAACTGTTTTCCTATATACATTTATCTTTTAAGAGGAGGAAT”, the “cleaved RNA product abundance” value turned out to be 0.55.

“CGACATGTCCCGCTTCTTTCATTAATCCGTTAGCAACTGTTTTCCTATATACGTTTACCTTTTAAGAGGAGGAAT”: the “cleaved RNA product abundance” value was 0.26.

Take “CGACATGTCCCGCTTCTTTCATTAATCCGTTAGCAACTGTTTTCCTATATATATTTACCTTTTAAGAGGAGGAAT”: the “cleaved RNA product abundance” value came to 0.505.

With “CGACATGTCCCGCTTCTTTCATTAATCCGTTAGCAACTGTTTTGAAATATACATTTACCTTTTAAGAGGAGGAAT”, the “cleaved RNA product abundance” value was 0.462.

As for “CGACATGTCCCGCTTCTTTCATTAATCCGTTAGCAACTGTTTTGATAAATACATTTACCTTTTAAGAGGAGGAAT”, the “cleaved RNA product abundance” value came out at 0.384.

Regarding “CGACATGTCCCGCTTCTTTCATTAATCCGTTAGCAACTGTTTTGATATAAACATTTACCTTTTAAGAGGAGGAAT”, the “cleaved RNA product abundance” value was 0.399.

For the sequence “CGACATGTCCCGCTTCTTTCATTAATCCGTTAGCAACTGTTTTGATATATAAATTTACCTTTTAAGAGGAGGAAT”, the “cleaved RNA product abundance” value was found to be 0.397.

“CGACATGTCCCGCTTCTTTCATTAATCCGTTAGCAACTGTTTTGATATATACACTTACCTTTTAAGAGGAGGAAT”: the “cleaved RNA product abundance” value was found to be 0.313.

Turning to “CGACATGTCCCGCTTCTTTCATTAATCCGTTAGCAACTGTTTTGATATATACATATACCTTTTAAGAGGAGGAAT”, the “cleaved RNA product abundance” value was 0.572.

As to “CGACATGTCCCGCTTCTTTCATTAATCCGTTAGCAACTGTTTTGATATATACATCTACCTTTTAAGAGGAGGAAT”, the “cleaved RNA product abundance” value was 0.44.

As for “CGACATGTCCCGCTTCTTTCATTAATCCGTTAGCAACTGTTTTGATATATACATTAACCTTTTAAGAGGAGGAAT”, the “cleaved RNA product abundance” value is 0.832.

In the case of “CGACATGTCCCGCTTCTTTCATTAATCCGTTAGCAACTGTTTTGATATATACATTTACATTTTAAGAGGAGGAAT”, the “cleaved RNA product abundance” value was determined as 0.372.

As to “CGACATGTCCCGCTTCTTTCATTAATCCGTTAGCAACTGTTTTGATATATACATTTACCTTTTAAGAGGAGGAAT”, the “cleaved RNA product abundance” value turned out to be 0.503.

Consider “CGACATGTCCCGCTTCTTTCATTAATCCGTTAGCAACTGTTTTGATATATACATTTATCTTTTAAGAGGAGGAAT”, for which the “cleaved RNA product abundance” value was determined as 0.509.

Take “CGACATGTCCCGCTTCTTTCATTAATCCGTTAGCAACTGTTTTGATATATACATTTGCCTTTTAAGAGGAGGAAT”: the “cleaved RNA product abundance” value came to 0.378.

Consider “CGACATGTCCCGCTTCTTTCATTAATCCGTTAGCAACTGTTTTGATATATACATTTTCCTTTTAAGAGGAGGAAT”, for which the “cleaved RNA product abundance” value is 0.376.

With “CGACATGTCCCGCTTCTTTCATTAATCCGTTAGCAACTGTTTTGATATATATATTTACCTTTTAAGAGGAGGAAT”, the “cleaved RNA product abundance” value was 0.766.

As for “CGACATGTCCCGCTTCTTTCATTAATCCGTTAGCAACTGTTTTGATATTTACATTTACCTTTTAAGAGGAGGAAT”, the “cleaved RNA product abundance” value worked out at 0.18.

For “CGACATGTCCCGCTTCTTTCATTAATCCGTTAGCAACTGTTTTGCAATAAACATTTACCTTTTAAGAGGAGGAAT”, the “cleaved RNA product abundance” value was found to be 0.232.

Consider “CGACATGTCCCGCTTCTTTCATTAATCCGTTAGCAACTGTTTTGCAATATACATTAACCTTTTAAGAGGAGGAAT”, for which the “cleaved RNA product abundance” value is 0.691.

With “CGACATGTCCCGCTTCTTTCATTAATCCGTTAGCAACTGTTTTGCAATATACATTTACCATTTAAGAGGAGGAAT”, the “cleaved RNA product abundance” value stood at 0.562.

For the sequence “CGACATGTCCCGCTTCTTTCATTAATCCGTTAGCAACTGTTTTGCAATATACATTTACCCTTTAAGAGGAGGAAT”, the “cleaved RNA product abundance” value came out at 0.405.

Regarding “CGACATGTCCCGCTTCTTTCATTAATCCGTTAGCAACTGTTTTGCAATATACATTTACCTTTTAAGAGGAGGAAT”, the “cleaved RNA product abundance” value was 0.436.

“CGACATGTCCCGCTTCTTTCATTAATCCGTTAGCAACTGTTTTGCAATATACATTTAGCTTTTAAGAGGAGGAAT”: the “cleaved RNA product abundance” value was 0.72.

In the case of “CGACATGTCCCGCTTCTTTCATTAATCCGTTAGCAACTGTTTTGCAATATACATTTATCTTTTAAGAGGAGGAAT”, the “cleaved RNA product abundance” value was determined as 0.505.
